Consider 13 substances from patent US20240132578A1.

Experiment in all cases: cell-based or functional assay
For assay [1], the target named is HIV-1 Env of isolate CMU02 (pseudovirus) (HIV-1).
For assay [2], the target named is HIV-1 Env of isolate 98CN006 (HIV-1).
Assay [3] addresses HIV-1 Env of isolate MGRM-G-017 (subtype G) (HIV-1).
The target of assay [4] is HIV-1 Env of isolate MGRM-C-025 (subtype C), on pseudovirus (HIV-1).
The target in assay [5] is HIV-1 Env of isolate MGRM-G-027 (subtype G) (HIV-1).
Assay [6] has as its target HIV-1 Env of isolate MG RM-A-010 (pseudovirus) (HIV-1).
In assay [7] the target is HIV-1 Env of pseudovirus isolate APV-6 (clade B) (HIV-1).
Assay [8] concerns the target HIV-1 Env of isolate MG RM-A-013 (pseudovirus) (HIV-1).
In assay [9] the target is HIV-1 Env of pseudovirus isolate MGRM-C-017 (clade C) (HIV-1).
The target of assay [10] is HIV-1 Env of isolate MGRM-F1-018 (HIV-1).
The target of assay [11] is HIV-1 Env of isolate MGRM-F1-014 (HIV-1).
Assay [12] deals with HIV-1 Env of pseudovirus isolate MGRM-C-007 (clade C) (HIV-1).
Assay [13] deals with HIV-1 Env of isolate VLGCA1 (subtype A) (HIV-1).
The target in assay [14] is HIV-1 Env of isolate MGRM-F1-021 (HIV-1).
In assay [15] the target is HIV-1 Env of isolate MGRM-A-013 (subtype A) (HIV-1).
In assay [16] the target is HIV-1 Env of isolate MGRM-D-029 (HIV-1).
Assay [17] deals with HIV-1 Env of isolate MGRM-A-007 (subtype A) (HIV-1).
For assay [18], the target named is HIV-1 Env of isolate 92WR009 (pseudovirus) (HIV-1).
Assay [19] deals with HIV-1 Env of pseudovirus isolate MGRM-C-022 (clade C) (HIV-1).
Assay [20] concerns the target HIV-1 Env of isolate MGRM-Chronic-B-008 (HIV-1).
The target in assay [21] is HIV-1 Env of isolate MGRM-AG-002 (subtype AG) (HIV-1).
For assay [22], the target named is HIV-1 Env of isolate MGRM-F1-013 (pseudovirus) (HIV-1).
The target in assay [23] is HIV-1 92UG024 Env (HIV-1).
Assay [24] deals with HIV-1 93IN905 Env (HIV-1).
The target in assay [25] is HIV-1 envelope glycoprotein (Env) of isolate VLGCA1, subtype A (HIV-1).
In assay [26] the target is HIV-1 Env of isolate MGRM-AG-013 (pseudovirus) (HIV-1).
Assay [27] has as its target HIV-1 envelope glycoprotein (Env) of isolate MGRM-Chronic-B-011, on pseudovirus (HIV-1).
Assay [28] concerns the target HIV-1 envelope glycoprotein (Env) of isolate MG RM-A-001, subtype A (HIV-1).
The target in assay [29] is HIV-1 envelope glycoprotein (Env) of isolate MG RM-A-013, subtype A (HIV-1).
A further assay concerns the target HIV-1 JRCSF Env (HIV-1) (UniProt P20871).
In assay [30] the target is HIV-1 Env of isolate MGRM-F1-020 (pseudovirus) (HIV-1).
For assay [31], the target named is HIV-1 VLGCA1 envelope glycoprotein (Env) on pseudovirus (HIV-1 (clade A)).
Assay [32] concerns the target HIV-1 Env of isolate MGRM-D-020 (clade D pseudovirus) (HIV-1).
Assay [33] concerns the target HIV-1 envelope glycoprotein (Env) of isolate MGRM-C-015 (HIV-1).
Assay [34] addresses HIV-1 JR-CSF Env Q422A (HIV-1 (isolate JR-CSF)) (UniProt P20871).

4995_E20 (PGT-142) (antibody), sequence (VH): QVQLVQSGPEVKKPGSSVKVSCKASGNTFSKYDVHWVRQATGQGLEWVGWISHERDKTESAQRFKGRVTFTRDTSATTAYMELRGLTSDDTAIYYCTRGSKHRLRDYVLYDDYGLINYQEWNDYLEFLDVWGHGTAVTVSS
4995_E20 (PGT-142) (antibody), sequence (VL): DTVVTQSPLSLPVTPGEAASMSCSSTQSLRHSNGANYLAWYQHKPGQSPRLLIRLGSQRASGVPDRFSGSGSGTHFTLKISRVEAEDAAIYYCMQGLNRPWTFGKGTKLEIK
4995_P16 (PGT-145) (antibody), sequence (VH): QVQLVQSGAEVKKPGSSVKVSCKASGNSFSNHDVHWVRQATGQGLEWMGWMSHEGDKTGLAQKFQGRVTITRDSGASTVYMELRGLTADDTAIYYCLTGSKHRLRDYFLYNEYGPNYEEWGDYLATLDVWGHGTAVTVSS
4995_P16 (PGT-145) (antibody), sequence (VL): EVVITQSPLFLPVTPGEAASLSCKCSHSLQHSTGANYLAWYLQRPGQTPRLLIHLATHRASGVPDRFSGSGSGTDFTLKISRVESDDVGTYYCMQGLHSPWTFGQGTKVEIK
4993_K13 (PGT-141) (antibody), sequence (VH): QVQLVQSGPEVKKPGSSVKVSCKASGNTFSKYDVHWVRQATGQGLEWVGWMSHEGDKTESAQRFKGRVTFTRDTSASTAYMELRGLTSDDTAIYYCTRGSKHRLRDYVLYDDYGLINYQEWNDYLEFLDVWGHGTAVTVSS
4980_N08 (PGT-143) (antibody), sequence (VH): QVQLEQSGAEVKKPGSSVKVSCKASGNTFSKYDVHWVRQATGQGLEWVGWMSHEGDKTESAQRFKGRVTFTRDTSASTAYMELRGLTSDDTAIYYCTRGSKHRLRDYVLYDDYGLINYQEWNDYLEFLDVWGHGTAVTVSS
4980_N08 (PGT-143) (antibody), sequence (VL): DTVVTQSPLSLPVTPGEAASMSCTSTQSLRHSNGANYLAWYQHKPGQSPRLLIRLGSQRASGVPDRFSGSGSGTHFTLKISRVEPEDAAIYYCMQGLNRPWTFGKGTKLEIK
4970_K22 (PGT-144) (antibody), sequence (VH): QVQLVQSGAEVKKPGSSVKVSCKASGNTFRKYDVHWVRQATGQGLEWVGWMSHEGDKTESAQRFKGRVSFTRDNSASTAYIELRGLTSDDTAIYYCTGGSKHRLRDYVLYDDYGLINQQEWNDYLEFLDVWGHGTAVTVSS
4970_K22 (PGT-144) (antibody), sequence (VL): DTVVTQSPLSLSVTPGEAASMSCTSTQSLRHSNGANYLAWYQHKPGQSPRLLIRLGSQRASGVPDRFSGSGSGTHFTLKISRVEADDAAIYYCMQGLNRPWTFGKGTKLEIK

Consider 4995_P16 (PGT-145) (antibody), for which the values for the IC50 (µg/mL), single-round pseudovirus neutralization in [1], in assay [6] and in assay [8] were 1.43 µg/mL, 0.028 µg/mL and 1.76 µg/mL, respectively. The IC50 (µg/mL), pseudovirus neutralization in assay [2] was above 50 µg/mL; in assay [3], 0.205 µg/mL; in [5], 0.433 µg/mL. In addition, the IC50, single-round pseudovirus neutralization in assay [4] amounted to 0.044 µg/mL. The substance also gave an IC50, pseudovirus neutralization in assay [7] of 0.104 µg/mL.

Regarding 4993_K13 (PGT-141) (antibody), the values for the IC50 (µg/mL), single-round pseudovirus neutralization in assay [1], in [6] and in assay [8] were above 50 µg/mL, 0.022 µg/mL and 9.86 µg/mL, respectively. Also, the IC50 (µg/mL), pseudovirus neutralization is above 50 µg/mL in [2], 0.164 µg/mL in assay [3] and above 50 µg/mL in [5]. In assay [4], the IC50, single-round pseudovirus neutralization came out at 0.247 µg/mL. For the same substance, the IC50, pseudovirus neutralization in assay [7] was determined as 14.2 µg/mL.

On to 5329_C19 (PGT-136) (antibody), for which the IC50, pseudovirus neutralization in assay [9], in [12], in [13], in assay [15], in assay [17] and in [19] was above 50 µg/mL each time. The substance also came in with an IC50, pseudovirus neutralization in [21] above 50 µg/mL. The IC50 (µg/mL), pseudovirus neutralization in assay [10], in assay [11], in assay [14], in assay [16], in assay [18] and in [20] was above 50 µg/mL each time.

On to 4877_D15 (PGT-122) (antibody), for which the values for the IC50 (µg/mL), pseudovirus neutralization in assay [22], in assay [26] and in assay [30] were 0.152 µg/mL, 0.521 µg/mL and 0.321 µg/mL, respectively. Besides, the IC50, pseudovirus neutralization in [23] is above 10 µg/mL; in assay [24] it was 0.0138 µg/mL; in [25], above 50 µg/mL; in [27], above 50 µg/mL; in assay [28] it was above 50 µg/mL; in assay [29], 2.47 µg/mL. In the assay with HIV-1 JRCSF Env (HIV-1), this substance showed an IC50, pseudovirus neutralization of 0.0727 µg/mL.

In the case of 1496_C09 (PG9) (TCN-109) (antibody), the IC50 (µg/mL), pseudovirus neutralization turned out to be 0.019 µg/mL in assay [10], 0.104 µg/mL in assay [3], 0.007 µg/mL in [5] and 0.259 µg/mL in assay [26]. Also, the IC50, pseudovirus neutralization came to 1.91 µg/mL in assay [23], 0.048 µg/mL in assay [24], 2.03 µg/mL in assay [32] and 0.0048 µg/mL in the assay with HIV-1 JRCSF Env (HIV-1). In addition, the IC50 (µg/ml), pseudovirus neutralization in assay [31] was found to be 0.07 µg/mL; in assay [33], 0.5 µg/mL.

5114_A19 (PGT-128) (antibody): the IC50, pseudovirus neutralization in assay [9] was 1.06 µg/mL; in assay [12], 0.111 µg/mL; in assay [13], 0.838 µg/mL; in [15], 0.008 µg/mL; in [17], above 50 µg/mL; in assay [19], 0.042 µg/mL. In assay [21], this substance registered an IC50, pseudovirus neutralization of 4.99 µg/mL. For the same substance, the IC50 (µg/mL), pseudovirus neutralization was 0.023 µg/mL in [10]; 0.277 µg/mL in assay [11]; above 50 µg/mL in [14]; above 50 µg/mL in assay [16]; 0.812 µg/mL in assay [18]; 0.143 µg/mL in [20]. This substance had a Fold IC50 increase relative to wild-type (pseudovirus neutralization) in assay [34] of 0.2 fold.

Take 4995_E20 (PGT-142) (antibody): the values for the IC50 (µg/mL), single-round pseudovirus neutralization in assay [1], in assay [6] and in assay [8] were above 50 µg/mL, 0.015 µg/mL and 3.77 µg/mL, respectively. Also, the IC50 (µg/mL), pseudovirus neutralization in assay [2] was above 50 µg/mL; in assay [3] it was 0.125 µg/mL; in [5], above 50 µg/mL. In assay [4], the IC50, single-round pseudovirus neutralization is 0.183 µg/mL. In assay [7], this substance registered an IC50, pseudovirus neutralization of 4.72 µg/mL.

For PGV04 (antibody), the IC50 (µg/mL), pseudovirus neutralization amounted to 1.24 µg/mL in assay [1]; 0.027 µg/mL in [10]; 0.065 µg/mL in assay [3]; 0.125 µg/mL in assay [5]; 0.03 µg/mL in assay [26]; 0.031 µg/mL in [14].

On to 5345_I01 (PGT-137) (antibody), for which the IC50, pseudovirus neutralization in assay [9] is above 50 µg/mL; in assay [12], above 50 µg/mL; in [13], above 50 µg/mL; in [15], 49.2 µg/mL; in [17] it was above 50 µg/mL; in [19], above 50 µg/mL. Also, in assay [21], the IC50, pseudovirus neutralization is above 50 µg/mL. For the same substance, the IC50 (µg/mL), pseudovirus neutralization in [10], in assay [11], in assay [14], in [16], in assay [18] and in assay [20] was above 50 µg/mL each time.

Regarding 4970_K22 (PGT-144) (antibody), the results for the IC50 (µg/mL), single-round pseudovirus neutralization in [1], in [6] and in [8] were above 50 µg/mL, 2.79 µg/mL and above 50 µg/mL, respectively. In addition, the values for the IC50 (µg/mL), pseudovirus neutralization in [2], in assay [3] and in assay [5] were above 50 µg/mL, 9.97 µg/mL and above 50 µg/mL, respectively. The substance further returned an IC50, single-round pseudovirus neutralization in [4] of 17.6 µg/mL. Also, the IC50, pseudovirus neutralization in [7] was above 50 µg/mL.

For the substance 4980_N08 (PGT-143) (antibody), the IC50 (µg/mL), single-round pseudovirus neutralization was above 50 µg/mL in [1], 0.019 µg/mL in assay [6] and 9.24 µg/mL in assay [8]. Also, the IC50 (µg/mL), pseudovirus neutralization was above 50 µg/mL in assay [2], 0.107 µg/mL in [3] and above 50 µg/mL in assay [5]. Further, in assay [4], the IC50, single-round pseudovirus neutralization was found to be 0.336 µg/mL. The IC50, pseudovirus neutralization in assay [7] is 14 µg/mL.

For 5343_B08 (PGT-135) (antibody), the IC50, pseudovirus neutralization in [9], in [12], in assay [13], in [15], in assay [17] and in assay [19] was above 50 µg/mL throughout. The same substance yielded an IC50, pseudovirus neutralization in assay [21] above 50 µg/mL. Moreover, the IC50 (µg/mL), pseudovirus neutralization is above 50 µg/mL in assay [10]; above 50 µg/mL in [11]; 0.065 µg/mL in assay [14]; 30.8 µg/mL in assay [16]; above 50 µg/mL in assay [18]; above 50 µg/mL in assay [20]. The Fold IC50 increase relative to wild-type (pseudovirus neutralization) in [34] is 0.8 fold.

4838_L06 (PGT-121) (antibody): the IC50 (µg/mL), pseudovirus neutralization in assay [22] stood at 0.083 µg/mL; in assay [30] it was 0.167 µg/mL. Further, the IC50, pseudovirus neutralization in [23] is above 10 µg/mL; in assay [25], above 50 µg/mL; in [27], above 50 µg/mL; in [28], above 50 µg/mL; in assay [29] it was 0.387 µg/mL.
